Numbering of substitutions follows the chain as printed.
Assays:
Assay in all cases: fluorescence anisotropy
InrS H21E = target: T1, InrS H21E (Synechocystis PCC 6803, UniProt Q55554 61-167, H81E)
T1 sequence: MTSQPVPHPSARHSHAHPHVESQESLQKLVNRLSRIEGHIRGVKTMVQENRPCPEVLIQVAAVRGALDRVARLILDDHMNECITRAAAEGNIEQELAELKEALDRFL

InrS = target: T2, InrS (Synechocystis PCC 6803, UniProt Q55554)
T2 sequence: T1 sequence with E21H

InrS H21L = target: T3, InrS H21L (Synechocystis PCC 6803, UniProt Q55554 61-167, H81L)
T3 sequence: T1 sequence with E21L

Measured: binding result

B1: nikProFA (dsDNA)
DNA 1: AAATCCATATCCCCCTTCCCCCCAGAGGGTATT
DNA 2: AATACCCTCTGGGGGGAAGGGGGATATGGATTT
binds: all assays above

From publication PMC5365139
